Assay results taken from US20250208146A1 (UNIVERSITY OF FLORIDA RESEARCH FOUNDATION, published 2025).

How the values were obtained:
[1] = biological target: T1, Z Alpha-1 Antitrypsin (Z-AAT) (human, UniProt P01009 25-418); assay: BLI (Octet): antibody from hybridoma supernatant loaded on the biosensor at 15ug/mL, ZAAT 500nM in HEPES buffer, association 300.81 s, dissociation 800.02 s, one concentration; column head kdis(1/s); Full R^2 0.7794
T1 construct: In the assays the protein was Z-AAT purified from plasma of Pi*ZZ patients, or Z-AAT in Z/Z plasma; also called Z-variant of alpha-1 antitrypsin; Z-AAT protein variant

[2] = biological target: T1, Z Alpha-1 Antitrypsin (Z-AAT); assay: BLI (Octet): antibody from hybridoma supernatant loaded on the biosensor at 15ug/mL, ZAAT 500nM in HEPES buffer, association 300.81 s, dissociation 800.02 s, one concentration; Full R^2 0.7794

T1 sequence (P01009 25-418 E366K limits assumed): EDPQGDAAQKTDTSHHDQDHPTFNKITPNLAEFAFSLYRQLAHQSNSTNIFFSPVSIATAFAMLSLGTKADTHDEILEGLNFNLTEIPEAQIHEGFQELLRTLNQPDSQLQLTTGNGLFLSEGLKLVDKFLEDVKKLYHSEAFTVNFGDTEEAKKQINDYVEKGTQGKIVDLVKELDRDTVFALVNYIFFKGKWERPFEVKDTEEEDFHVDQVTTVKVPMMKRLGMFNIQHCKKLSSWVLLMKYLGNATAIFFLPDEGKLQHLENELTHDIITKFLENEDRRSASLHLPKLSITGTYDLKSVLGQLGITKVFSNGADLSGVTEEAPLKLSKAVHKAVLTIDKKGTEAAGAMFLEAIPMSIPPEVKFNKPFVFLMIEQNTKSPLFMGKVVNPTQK

B1: HL2440 (antibody, V domains shown)
VH: QVQLQQPGAELVKPGASVKMSCKASGYTFTSYWITWVKQRPGQGLEWIGDIYPGSGSTNYNEKFKNKATLTVDTSSSTAYMQLSSLTSEDSAVYYCAAAVKGFAYWGQGTLVTVSA
VL: DIVMTQSHKFMSTSVGDRVSITCKASQDVGTAVAWYQQKPGQSPKLLIYWASTRHTGVPDRFTGSGSGTDFTLTISNVQSEDLADYFCQQYSTYPLTFGSGTKLEIK
notes: Mouse monoclonal from a hybridoma, used as supernatant or purified; also called Z-specific antibody HL2440; ZAAT mAb
- koff [1]: 0.00125 s⁻¹
- Kd [2]: 37.6 nM
- kon [2]: 33200 M⁻¹ s⁻¹
